± gives the standard deviation.
Assay: protein stability index of a GFP-peptide fusion (GPS, HEK-293T) (PSI 1-6); higher = more stable
Conditions: c terminus: a fixed tail appended
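Note: 24-mer peptide tiles fused after GFP, lentivirally expressed, FACS-sorted into six equal bins by GFP/DsRed ratio, decoded by Illumina sequencing, PSI is the read-weighted mean bin number.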

| Sequence | protein stability index (treatment: DMSO) | protein stability index (treatment: MLN4924 1 uM, 8 h) |
| --- | --- | --- |
| PRIEASKVLLCHGELRSKSGHKLY [NET1] | 2.64 ± 0.46 | 2.81 ± 0.34 |
| ADYSAALDPAYTTLEFENVQVLTM [HNF4A] | 2.75 ± 0.25 | 2.39 ± 0.32 |
| QREGTGKTVSLQIFSVLNSDDAAA [SMOC2] | 3.38 ± 0.24 | 3.35 ± 0.4 |
| IKRTIRVLDVNNQSFREQEEPSNK [NET1] | 3.68 ± 0.42 | 3.93 ± 0.26 |
| EKPYKCPECGEIFAHSSNLLRHQR [ZNF263] | 3.07 ± 0.86 | 3.76 ± 0.93 |
| SRTSCRLSGGLGAGSCRLGSAGGL [KRT17] | 2.33 ± 0.44 | 2.23 ± 0.36 |
| FLPDLLIFQMVIICLMCVHSLERA [SMG5] | 3.28 ± 0.47 | 2.59 ± 0.5 |
| KLKALHVDSAEYSCLKAIVLFTSD [NR2F2] | 2.45 ± 0.36 | 2.27 ± 0.15 |
| PAATMAVELHYEEGSPRNLGTPTS [C2CD2L] | 4.4 ± 0.17 | 4.52 ± 0.2 |
| ETRVWHRRDGKWQIVHFHRSGAPS [CAMK2A] | 2.95 ± 0.07 | 3.1 ± 0.25 |
| EDLTAKRKRMKMDKTCSKTKNKSK [FAM9B] | 4.98 ± 0.43 | 5.16 ± 0.34 |
| IKEIDEHAPGVPRILVGNRLHLAF [RAB40C] | 2.21 ± 0.21 | 2.06 ± 0.28 |
| ESVEQLESRIVEQENAIQTMELRN [SNX8] | 5.41 ± 0.21 | 5.51 ± 0.11 |
| QVHQGIKGMVLDENYNNLANAVIS [CPN1] | 2.52 ± 0.23 | 2.62 ± 0.34 |
| LAHLGRHMEALEIAANLENKATNT [C8orf76] | 4.22 ± 0.17 | 4.29 ± 0.37 |
| DVESGQLLQSFHGHGADVLCLDLA [GNB5] | 3.69 ± 0.28 | 3.81 ± 0.31 |
| GDPEEIRMLIHKTEDVNTLDSEKR [ANKRD44] | 5.51 ± 0.16 | 5.33 ± 0.33 |
| GKEVVKQLEEGLKDTDLARVRRFQ [M1AP] | 4.58 ± 0.35 | 4.62 ± 0.2 |
| ACSAWLCPGLRLPGSLAGRRAGPA [AUH] | 2.2 ± 0.31 | 2.04 ± 0.9 |
| KILDELEKVLDQVETELQRRNEET [GDAP1] | 3.08 ± 0.1 | 3.53 ± 0.081 |
| YLLPDTCFRMQINHAIDIICGFLK [OAS1] | 2.27 ± 0.3 | 2.1 ± 0.33 |
| CSITGDSSRVIAASYDKTVRAWDL [WDR88] | 2.57 ± 0.2 | 2.6 ± 0.2 |
| ENDGFVFKMPWKPTHPSSTHALAE [CDC25B] | 3.55 ± 0.44 | 3.36 ± 0.16 |

| Sequence | protein stability index (treatment: DMSO) | protein stability index (treatment: MLN4924 1 uM, 8 h) |
| --- | --- | --- |
| QKTLQVKCQHYKKKRTEQEETIAS [CEP70] | 4.33 ± 0.34 | 4.64 ± 0.2 |
| EQLLARGYAVNVFDIQQGFDNPQV [NSDHL] | 2.77 ± 0.19 | 3.54 ± 0.24 |
| PLVKKHCDDSFTPQEKLWQQLRRG [CPOX] | 3.49 ± 0.21 | 3.57 ± 0.2 |
| HTRSPYSTFYPPYHSPELTTPPGH [NEUROD6] | 3.23 ± 0.14 | 3.18 ± 0.15 |
| GSAVARAVCKATTHEVMGPKKKHL [SNAP91] | 4.58 ± 0.19 | 4.83 ± 0.17 |
| EDSCAELGESKEHMESRMVTETEE [SDE2] | 5.7 ± 0.18 | 5.63 ± 0.3 |
| VRLKPALQRLDFSVRGYMMSKQRE [RETREG3] | 2.64 ± 0.48 | 2.7 ± 0.44 |
| KVSYLKQKGLGGAMVWALDLDDFA [CHIT1] | 1.85 ± 0.49 | 2.36 ± 0.3 |
| NLLSIALYLLSGSIIAVAMQRGAR [POMT2] | 3.2 ± 0.36 | 3.34 ± 0.13 |
| ELESLSAIEAELEKVAHQLQALRR [CHGA] | 4.74 ± 0.22 | 4.97 ± 0.4 |
| PFHDSDPSALFSKIRRGQFCIPEH [TRIB1] | 3.13 ± 0.25 | 3.12 ± 0.44 |
| VDMECQTDAFLDRPPTPLFIPAKT [RSPH3] | 4.01 ± 0.1 | 4.19 ± 0.061 |
| PTPQVDELDILPIHPPSGNSDLDP [BTBD10] | 5.54 ± 0.097 | 5.39 ± 0.35 |
| MLDMKVNPIQGLASKWDYEKNEWK [COX4I1] | 3.75 ± 0.18 | 3.65 ± 0.21 |
| DGLLGDNQIMPKAGLLIIVLAIIA [MAGEA3] | 3.11 ± 0.91 | 2.46 ± 0.34 |
| SDNILSPVMNGGVQTWTQPRLCYL [PDZK1] | 2.19 ± 0.31 | 2.46 ± 0.56 |
| MFSDNSHCPDCGQQWFPSLELGHW [TOR1AIP2] | 2.33 ± 0.35 | 2.44 ± 0.34 |
| CFEASDCKESSPMPVICGPEENYP [NANOGP8] | 3.98 ± 0.32 | 4.24 ± 0.26 |
| REVEARYALQMEQLNGILLHLESE [KRT18] | 2.98 ± 0.63 | 3.16 ± 0.53 |
| EPSQMLKHAVVNLINYQDDAELAT [CTNNB1] | 4.16 ± 0.32 | 4.25 ± 0.26 |
| FATRPGAIETAMEDLKGHVAETSG [TPRG1] | 4.45 ± 0.31 | 4.81 ± 0.19 |
| AFVVYLETETLVTREAVTEILGIE [TSN] | 2.58 ± 0.6 | 2.52 ± 0.7 |
| MCVAQVLTAHLLPPRQALGSLCSP [YPEL3] | 2.8 ± 0.93 | 2.8 ± 0.35 |

| Sequence | protein stability index (treatment: DMSO) | protein stability index (treatment: MLN4924 1 uM, 8 h) |
| --- | --- | --- |
| RPGHLPGLLLGSHGLLGSPVRAAA [CDC25B] | 3.31 ± 0.53 | 3.09 ± 0.42 |
| EVKTRHSEKSQREDEEEEEGENYQ [CHGB] | 5.64 ± 0.28 | 5.48 ± 0.31 |
| RFLDYEMQNSNECKRNFVAVYDGS [NETO1] | 2.96 ± 0.24 | 3.31 ± 0.85 |
| KQKVSRIERSSSFSSITDSTMSLN [DVL3] | 4.27 ± 0.049 | 4.43 ± 0.16 |
| KPGEGRSALFAGNEWRRPIIQFVE [TRIM29] | 2.34 ± 0.35 | 2.86 ± 0.46 |
| DENLFTGEDLDELEEELNTLDLEE [ZC3H15] | 5.18 ± 0.75 | 5.44 ± 0.21 |
| TGANTKKPEDTAEDLTAKRKRMKM [FAM9B] | 5.4 ± 0.28 | 5.15 ± 0.51 |
| CTRFTDEYQLYEDIGKGAFSVVRR [CAMK2B] | 2.84 ± 0.35 | 2.85 ± 0.54 |
| LHSQEDDDSSSESGSGNGSSTLNP [NOL4L] | 5.39 ± 0.2 | 5.48 ± 0.17 |
| NPIQKEEDEGVDLSEGSSNEDEDL [SPANXN3] | 4.96 ± 0.43 | 4.95 ± 0.39 |
| SHGVRNKCLQLLGNLGSLEKSVTK [INTS4] | 3.23 ± 0.27 | 3.28 ± 0.22 |
| EDSSRDIREALHELLCCTNVSTKE [INTS4] | 3.75 ± 0.31 | 3.98 ± 0.25 |
| KVRPSHKRCIVILREIPETTPIEE [LARP4] | 2.59 ± 0.21 | 2.58 ± 0.35 |
| DSEHEPVYRAELVGELNGYLRDSS [PWWP2B] | 4.46 ± 0.14 | 4.45 ± 0.16 |
| HLDRTSVSSLSEVEEVDMAEEFEQ [ELOA2] | 5.66 ± 0.34 | 5.48 ± 0.4 |
| ECVVAMHQAQLISKIPHILKEMYD [EIF5] | 2.78 ± 0.38 | 2.32 ± 0.5 |
| ETTRNTTGIEESTDGMILGPEDLS [LARP4] | 5.47 ± 0.4 | 5.43 ± 0.28 |
| TFWASWRAFAQIGPARSGFRLETL [MIR22HG] | 2.73 ± 0.42 | 2.47 ± 0.41 |
| SVPIVYEKYKTQIDHYVGIARDQT [RTN3] | 2.89 ± 0.36 | 3.06 ± 0.09 |
| IIEYRGKFMLREQFEANGYFFKRP [KMT2E] | 2.31 ± 0.63 | 2.37 ± 0.36 |
| PDSHQKRPQHSHSNKKRPSLDGRD [ELOA2] | 5.33 ± 0.17 | 5.14 ± 0.21 |
| CSCQADPRHQGHRVQPVKDTAHDF [TRIM35] | 3.42 ± 0.31 | 3.56 ± 0.14 |
| ALREENRMLSKENKILQVFWEEHK [CBY2] | 3.19 ± 0.12 | 3.28 ± 0.3 |

| Sequence | protein stability index (treatment: DMSO) | protein stability index (treatment: MLN4924 1 uM, 8 h) |
| --- | --- | --- |
| LGAVAVFAVGYIKISWSTWGEMTL [SLC19A2] | 2.97 ± 0.68 | 2.97 ± 0.73 |
| KASALNTKIRALQGSLENMSKLLK [CD207] | 2.22 ± 0.33 | 2.26 ± 0.32 |
| NTSLHVFVLDENDNAPAVLHPRPD [PCDHGC5] | 3.49 ± 0.27 | 3.51 ± 0.2 |
| VDHQGVSWYHWKGFEFSVPFTEMK [TNXB] | 2.45 ± 0.55 | 2.49 ± 0.74 |
| RTMDIPRSVQNFRFFASSSLHHTS [ALDH8A1] | 2.43 ± 0.15 | 2.62 ± 0.2 |
| MPIPEDLSTTSGGQQSSKSDRVVA [IKZF1] | 5.44 ± 0.16 | 5.39 ± 0.2 |
| RMSYQDPAQLSCLPYLEHVGHNHT [NFE2L1] | 2.98 ± 0.2 | 3.12 ± 0.28 |
| FALASLLQSAPDVKGRVRCLTAGP [ZSWIM9] | 2.02 ± 0.29 | 2.42 ± 0.24 |
| CRRSIRSALGRQRLQDISSLPLPQ [SPSB4] | 3.03 ± 0.38 | 3.33 ± 0.43 |
| RLGPLSAEGTTGLAPAGQTSEESR [TNXB] | 5.3 ± 0.36 | 5.41 ± 0.2 |
| EQELYNNFVYNSPRGYFHTFAGDT [WASL] | 2.73 ± 0.21 | 2.78 ± 0.32 |
| GYNLTSISESMAACTRSLLGDPPP [HDAC6] | 3.52 ± 0.38 | 3.4 ± 0.2 |
| AARLLRALSSFREESRFCDAHLVL [GAN] | 2.41 ± 0.65 | 2.02 ± 0.27 |
| STHLTVHRRIHTGEKPYECQDCGR [ZNF8] | 3.9 ± 0.32 | 4.1 ± 0.52 |
| ADAFHHQVHDDDLLSSSEEECKDR [EMD] | 5.66 ± 0.14 | 5.66 ± 0.17 |
| QSCLLVIFATKPHVLPAVLAEVAP [PYCR3] | 3.09 ± 0.75 | 3.32 ± 0.74 |
| DNPANRSLVLPWSFPLEWAPQNLT [TOR1AIP2] | 2.87 ± 0.23 | 2.79 ± 0.17 |
| PSSGPVTPQPTALTFAKSSWARQE [AUP1] | 4.2 ± 0.29 | 4.27 ± 0.24 |
| DDISVDSLDFTKKILHTAWHPAEN [PPP2R2C] | 3.12 ± 0.36 | 3.12 ± 0.49 |
| LKERCAQDACQAQAREKELLELQS [CCDC89] | 4.1 ± 0.26 | 4 ± 0.51 |

From the supplement of paper PMC10567573
